Measured values published in US20180362643A1 (Amgen, published 2018).
Each block holds one binder with its values, some of them ahead of it. Ends that are not written are not given here.

Legend:
[1] = target: T1, full-length human PACAP38 (human, not fully specified); test: cell-based or functional assay
T1 peptide: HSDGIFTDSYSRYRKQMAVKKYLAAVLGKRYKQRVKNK

human PACAP27 = target: T2, human PACAP27 (human, not fully specified); test: cell-based or functional assay
T2 peptide: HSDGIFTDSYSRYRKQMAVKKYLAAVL

[2] = target: T3, carboxy terminal PACAP38 peptide (amino acids 28-38) (human, ends and bridges not checked); test: ELISA screen of B-cell culture supernatant
T3 construct: also called C-terminal Peptide; C-terminal PACAP peptide
T3 peptide: GKRYKQRVKNK

[3] = target: T4, vasoactive intestinal peptide (VIP) (human); test: ELISA screen of B-cell culture supernatant; VIP at 100 ng/mL
T4 construct: also called human VIP
T4 peptide: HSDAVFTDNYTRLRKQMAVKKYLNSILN

[4] = target: T3, carboxy terminal PACAP38 peptide (amino …); test: ELISA screen of B-cell culture supernatant; C-terminal peptide at 500 ng/mL
From the text: (§1) Rabbits were immunized with human PACAP38 peptide ([…]; SEQ ID NO: 1). Monoclonal antibodies were generated from the immunized rabbits using the Selected Lymphocyte Antibody Method (SLAM) as described in Babcook et al., Proc. Natl. Acad. Sci. USA, Vol. 93: 7843-7848, 1996. Briefly, B cells were harvested from spleens from the immunized rabbits and expanded in culture. The supernatant from the expanded B-cell cultures was initially screened for binding to an amino terminal PACAP38 peptide ([…]; SEQ ID NO: 5) and a carboxy terminal PACAP38 peptide ([…]; SEQ ID NO: 4) using an ELISA assay. From the initial screen, 2,935 N-terminal and/or C-terminal binders were identified. The affinity of these antibodies for full-length human PACAP38 (SEQ ID NO: 1) was assessed by ELISA assay.

[5] = target: T1, full-length human PACAP38; test: ELISA screen of B-cell culture supernatant; full-length PACAP38 at 10 ng/mL
From the text: as §1

[6] = target: T5, PACAP38 peptide fragment 6-20 (human); test: SPR (Biacore 3000), solution competition with the peptide for antibody binding to immobilised full-length PACAP38; % inhibition
T5 construct: also called peptide No. 13
T5 peptide: FTDSYSRYRKQMAVK
Protocol: (§2) The binding epitopes of anti-PACAP antibodies were evaluated by using the Biacore 3000 biosensor-based instrument (GE Healthcare USA). The Biacore 3000 instrument utilizes surface plasmon resonance (SPR) technology to measure mass increase on the sensor-chip surface. The binding interactions are measured in real-time and recorded as Response Units (RU). Each binding profile (cycle) is stored in a “sensorgram” in real-time. Generally, Biacore technology entails immobilizing a ligand of interest on to a flow-cell of the sensor-chip via a coupling chemistry. The analyte (e.g. putative binding partner to the ligand of interest) is injected across the immobilized ligand allowing it to bind to the ligand-immobilized surface. The magnitude of the response is directly proportional to the mass increase on the immobilized surface due to the binding of the analyte.
(§3) In this experiment, various peptide fragments of PACAP38 were incubated with each of the six antibodies (mAb1, mAb2, mAb3, mAb4, mAb5, and mAb6) described in Example 2 and evaluated for their ability to inhibit binding of the antibodies to full-length PACAP38 immobilized on the sensor-chip. The binding epitopes for each of the antibodies were deduced from the set of peptides that were able to inhibit the binding of each antibody to full-length PACAP38.
(§4) Each of the six anti-PACAP antibodies was incubated at a 1:200 molar ratio (Ab: peptide fragment) with each of the peptide fragments in Table 9 at an ambient temperature for 2 hours prior to analysis. […] A second control containing 6.5 nM antibody was prepared in sample diluent to be used as the untreated control sample for each antibody. Full-length PACAP38, buffer, and each peptide fragment were also tested to evaluate non-specific binding to the immobilized PACAP38 surface.

[7] = target: T6, PACAP38 peptide fragment 34-38 (human, ends and bridges not checked); test: as above
T6 construct: also called peptide No. 17; RVKNK
T6 peptide: RVKNK
Protocol: as §2, §3, §4

[8] = target: T7, amino terminal PACAP38 peptide (amino acids 1-13) (human); test: ELISA screen of B-cell culture supernatant; N-terminal peptide at 500 ng/mL; ELISA screen of B-cell culture supernatant (Example 1); N-terminal peptide 500 ng/mL; optical density
T7 construct: also called N-terminal Peptide; N-terminal PACAP peptide
T7 peptide: HSDGIFTDSYSRY
From the text: as §1

[9] = target: T8, PACAP38 peptide fragment 6-37 (human); test: SPR (Biacore 3000), solution competition: antibody pre-incubated 2 h with the peptide at 1:200 molar ratio (Ab:peptide), then injected over immobilised full-length PACAP38; readout % inhibition of antibody binding (filing counts >50 % as reactive)
T8 construct: also called peptide No. 3
T8 peptide: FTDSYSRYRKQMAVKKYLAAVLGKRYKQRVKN
Protocol: as §2, §3, §4

[10] = target: T9, PACAP38 peptide fragment 14-38 (human, not fully specified); test: as above
T9 construct: also called peptide No. 7
T9 peptide: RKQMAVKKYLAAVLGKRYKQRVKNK
Protocol: as §2, §3, §4

[11] = target: T10, PACAP38 peptide fragment 6-38 (human, not fully specified); test: as above
T10 construct: also called peptide No. 11
T10 peptide: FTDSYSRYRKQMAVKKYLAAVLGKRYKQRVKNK
Protocol: as §2, §3, §4

[12] = target: T11, PACAP38 peptide fragment 6-36 (human); test: as above
T11 construct: also called peptide No. 12
T11 peptide: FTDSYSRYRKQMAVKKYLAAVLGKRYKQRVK
Protocol: as §2, §3, §4

[13] = target: T4, vasoactive intestinal peptide (VIP); test: ELISA screen of B-cell culture supernatant

IC50: inhibition of PACAP38 (10 pM)-induced activation of human PAC1 receptor, cAMP assay in SH-SY5Y (CRL-2266) cells, POC versus antibody concentration [1]: 0.6 nM | IC50: inhibition of PACAP27 (10 pM)-induced activation of human PAC1 receptor, cAMP assay in SH-SY5Y (CRL-2266) cells, POC versus antibody concentration (human PACAP27): 0.5 nM | binding result [2]: no binding (tested: 500 ng/mL) | Optical Density [3]: 0.95 OD | Optical Density [4]: 0.05 OD | Optical Density [5]: 3.55 OD | Optical Density [8]: 4.24 OD | binding result [9]: binds | binding result [10]: binds | binding result [11]: binds | binding result [12]: binds
B1: mAb6 (antibody, V domains shown)
VH: QLEESGGGLVQPGASLTLTCTTSGFSLSDNYLCWVRQAPGRGLEWVACIGIVLRSTGATYYASWAEGRFTISKTSPTTVTLEMTSLTAADTATYFCALDLGYGGPLWGPGTLVTVSS
VL: AQVLTQTPASVSAAVGGTVTINCQASQSVYNNKNLAWYQQKPGQPPKLLIYFSSTLASGVPSRFRGSGSGTQFTLTISGVQCGDAATYYCLGEFGSIWAFGGGTEVVVKG
notes: Rabbit monoclonal antibody (SLAM), recombinant; also called monoclonal anti-PACAP antibody 6; 6 (c55)
binding result [6]: no binding (tested: 1:200 molar ratio (Ab:peptide)) | binding result [7]: no binding (tested: 1:200 molar ratio (Ab:peptide))

IC50: inhibition of PACAP38 (10 pM)-induced activation of human PAC1 receptor, cAMP assay in SH-SY5Y (CRL-2266) cells, POC versus antibody concentration [1]: 1 nM | IC50: inhibition of PACAP27 (10 pM)-induced activation of human PAC1 receptor, cAMP assay in SH-SY5Y (CRL-2266) cells, POC versus antibody concentration (human PACAP27): 26 nM | binding result [13]: no binding (tested: 100 ng/mL) | binding result [2]: no binding (tested: 500 ng/mL) | Optical Density [3]: 0.12 OD | Optical Density [4]: 0.05 OD | Optical Density [5]: 3.21 OD | Optical Density [8]: 1.34 OD | binding result [9]: binds | binding result [11]: binds | binding result [12]: binds
B2: mAb5 (antibody, V domains shown)
VH: QSVEESGGRLVTPGTPLTLTCTVSGFSLSTYNMCWVRQAPGKGLEWVGFINSDDSAYYASWAKGRFTFSKTSTTVDLKIASPTTEDTATYFCARYDWDYYYSRLDLWGPGTLVTVSS
VL: DIVLTQTPASVSAAVGGTVSISCQSSESVYNNNYLSWFQQKPGQPPKLLIYGASTLASGVPSRFEGSGSGTQFTLTISDVQCDDAATYYCLGDYIIIENIFGGGTEVVVKG
notes: Rabbit monoclonal antibody (SLAM), recombinant; also called monoclonal anti-PACAP antibody 5; 5 (c71)
binding result [6]: no binding (tested: 1:200 molar ratio (Ab:peptide)) | binding result [7]: no binding (tested: 1:200 molar ratio (Ab:peptide))

IC50: inhibition of PACAP38 (10 pM)-induced activation of human PAC1 receptor, cAMP assay in SH-SY5Y (CRL-2266) cells, POC versus antibody concentration [1]: 0.4 nM | IC50: inhibition of PACAP27 (10 pM)-induced activation of human PAC1 receptor, cAMP assay in SH-SY5Y (CRL-2266) cells, POC versus antibody concentration (human PACAP27): > 1 uM | binding result [13]: no binding (tested: 100 ng/mL) | Optical Density [3]: 0.09 OD | Optical Density [4]: 3.74 OD | Optical Density [5]: 3.39 OD | binding result [9]: binds | binding result [10]: binds | binding result [11]: binds
B3: mAb2 (antibody, V domains shown)
VH: QSLEESGGGLVQPEGSLTLTCTASGFSFNSSSYMCWVRQAPGKGLEWIGCIFTGSSGNTYYATWAQGRFTISKTSTTVTLEMTSLTAADTATYFCARDRAYFLVGYFYATYYFDLWGPGTLVTVSS
VL: DVVMTQTPSPVSAQVGGTVTINCQASESIDSDLSWYQQKPGQPPKLLIYRTFTLESGVPSRFKGSGSGTDYTLTISDLECADAAIYYCQCTDGSSISGSYGWDAFGGGTEVVVKG
notes: Rabbit monoclonal antibody (SLAM), recombinant; also called monoclonal anti-PACAP antibody 2; 2 (c81)
binding result [6]: no binding (tested: 1:200 molar ratio (Ab:peptide))
